Reference: paper PMC3081424 (Archives of biochemistry and biophysics, 2011)

T1: eYFP-PLCβ1 S887D (UniProt P10687 1-1216, S887D)
T1 sequence (looked up): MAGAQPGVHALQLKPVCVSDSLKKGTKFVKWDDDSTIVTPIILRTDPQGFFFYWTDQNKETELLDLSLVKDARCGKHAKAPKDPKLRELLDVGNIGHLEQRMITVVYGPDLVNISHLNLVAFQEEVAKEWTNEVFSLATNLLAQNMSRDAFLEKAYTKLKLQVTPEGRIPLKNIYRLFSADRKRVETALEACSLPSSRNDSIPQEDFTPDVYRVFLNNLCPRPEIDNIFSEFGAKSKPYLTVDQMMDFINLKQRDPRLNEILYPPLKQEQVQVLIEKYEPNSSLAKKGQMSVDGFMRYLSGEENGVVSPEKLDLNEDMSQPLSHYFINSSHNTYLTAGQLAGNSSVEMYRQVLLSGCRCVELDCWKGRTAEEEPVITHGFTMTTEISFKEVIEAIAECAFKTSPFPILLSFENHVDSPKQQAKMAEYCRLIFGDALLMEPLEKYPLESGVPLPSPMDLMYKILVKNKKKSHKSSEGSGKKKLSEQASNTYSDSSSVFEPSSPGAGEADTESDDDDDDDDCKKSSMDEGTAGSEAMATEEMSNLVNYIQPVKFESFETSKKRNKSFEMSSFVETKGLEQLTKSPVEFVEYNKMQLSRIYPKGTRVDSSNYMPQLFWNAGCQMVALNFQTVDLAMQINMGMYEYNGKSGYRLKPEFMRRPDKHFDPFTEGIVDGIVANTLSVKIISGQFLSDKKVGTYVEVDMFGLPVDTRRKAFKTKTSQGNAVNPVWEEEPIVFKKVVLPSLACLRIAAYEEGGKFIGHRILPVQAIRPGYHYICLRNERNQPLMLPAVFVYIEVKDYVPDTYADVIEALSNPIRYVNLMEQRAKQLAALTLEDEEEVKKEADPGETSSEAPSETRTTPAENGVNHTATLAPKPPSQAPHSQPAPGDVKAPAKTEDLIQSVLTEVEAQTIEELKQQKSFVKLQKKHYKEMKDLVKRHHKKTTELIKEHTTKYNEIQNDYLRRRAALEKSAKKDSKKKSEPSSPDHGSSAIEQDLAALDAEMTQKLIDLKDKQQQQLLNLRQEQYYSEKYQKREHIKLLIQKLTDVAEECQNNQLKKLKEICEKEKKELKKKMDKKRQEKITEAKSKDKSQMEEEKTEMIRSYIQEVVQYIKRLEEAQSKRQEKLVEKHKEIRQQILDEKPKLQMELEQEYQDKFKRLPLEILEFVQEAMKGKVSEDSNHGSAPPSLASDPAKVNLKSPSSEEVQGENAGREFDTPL

T2: eYFP-PLCβ1 (wild type phospholipase Cβ1) (UniProt P10687 1-1216)
T2 sequence (looked up): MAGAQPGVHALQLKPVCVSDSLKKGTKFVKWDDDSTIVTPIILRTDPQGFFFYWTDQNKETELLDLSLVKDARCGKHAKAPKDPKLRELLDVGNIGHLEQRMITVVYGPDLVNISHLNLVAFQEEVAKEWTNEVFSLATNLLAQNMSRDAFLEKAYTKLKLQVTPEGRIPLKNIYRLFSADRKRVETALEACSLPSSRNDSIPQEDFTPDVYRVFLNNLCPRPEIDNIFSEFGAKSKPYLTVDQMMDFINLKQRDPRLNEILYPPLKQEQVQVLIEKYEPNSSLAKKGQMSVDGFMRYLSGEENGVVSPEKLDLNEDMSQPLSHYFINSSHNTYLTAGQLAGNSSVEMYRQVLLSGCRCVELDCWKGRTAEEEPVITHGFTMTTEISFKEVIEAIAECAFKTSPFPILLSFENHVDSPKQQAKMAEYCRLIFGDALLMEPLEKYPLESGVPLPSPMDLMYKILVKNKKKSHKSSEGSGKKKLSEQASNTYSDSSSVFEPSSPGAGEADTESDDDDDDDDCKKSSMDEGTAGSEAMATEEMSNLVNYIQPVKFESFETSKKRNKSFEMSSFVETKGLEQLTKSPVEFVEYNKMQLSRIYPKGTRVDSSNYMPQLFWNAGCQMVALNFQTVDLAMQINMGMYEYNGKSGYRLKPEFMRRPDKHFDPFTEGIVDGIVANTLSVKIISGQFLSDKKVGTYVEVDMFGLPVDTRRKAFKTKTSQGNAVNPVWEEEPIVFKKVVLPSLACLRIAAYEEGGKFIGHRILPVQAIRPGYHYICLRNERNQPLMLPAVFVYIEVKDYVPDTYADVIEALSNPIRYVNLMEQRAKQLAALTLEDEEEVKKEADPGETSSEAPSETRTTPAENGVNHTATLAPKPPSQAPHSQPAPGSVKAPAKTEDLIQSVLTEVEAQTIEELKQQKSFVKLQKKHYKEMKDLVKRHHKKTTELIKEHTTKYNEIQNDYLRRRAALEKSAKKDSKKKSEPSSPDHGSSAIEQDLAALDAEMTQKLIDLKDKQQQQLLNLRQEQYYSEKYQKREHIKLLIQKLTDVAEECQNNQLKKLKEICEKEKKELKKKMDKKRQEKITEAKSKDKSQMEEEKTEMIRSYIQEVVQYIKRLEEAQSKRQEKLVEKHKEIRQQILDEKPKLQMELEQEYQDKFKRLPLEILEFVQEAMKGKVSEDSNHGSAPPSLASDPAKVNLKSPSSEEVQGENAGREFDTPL

T3: eYFP-PLCβ1 S887A (UniProt P10687 1-1216, S887A)
T3 sequence (looked up): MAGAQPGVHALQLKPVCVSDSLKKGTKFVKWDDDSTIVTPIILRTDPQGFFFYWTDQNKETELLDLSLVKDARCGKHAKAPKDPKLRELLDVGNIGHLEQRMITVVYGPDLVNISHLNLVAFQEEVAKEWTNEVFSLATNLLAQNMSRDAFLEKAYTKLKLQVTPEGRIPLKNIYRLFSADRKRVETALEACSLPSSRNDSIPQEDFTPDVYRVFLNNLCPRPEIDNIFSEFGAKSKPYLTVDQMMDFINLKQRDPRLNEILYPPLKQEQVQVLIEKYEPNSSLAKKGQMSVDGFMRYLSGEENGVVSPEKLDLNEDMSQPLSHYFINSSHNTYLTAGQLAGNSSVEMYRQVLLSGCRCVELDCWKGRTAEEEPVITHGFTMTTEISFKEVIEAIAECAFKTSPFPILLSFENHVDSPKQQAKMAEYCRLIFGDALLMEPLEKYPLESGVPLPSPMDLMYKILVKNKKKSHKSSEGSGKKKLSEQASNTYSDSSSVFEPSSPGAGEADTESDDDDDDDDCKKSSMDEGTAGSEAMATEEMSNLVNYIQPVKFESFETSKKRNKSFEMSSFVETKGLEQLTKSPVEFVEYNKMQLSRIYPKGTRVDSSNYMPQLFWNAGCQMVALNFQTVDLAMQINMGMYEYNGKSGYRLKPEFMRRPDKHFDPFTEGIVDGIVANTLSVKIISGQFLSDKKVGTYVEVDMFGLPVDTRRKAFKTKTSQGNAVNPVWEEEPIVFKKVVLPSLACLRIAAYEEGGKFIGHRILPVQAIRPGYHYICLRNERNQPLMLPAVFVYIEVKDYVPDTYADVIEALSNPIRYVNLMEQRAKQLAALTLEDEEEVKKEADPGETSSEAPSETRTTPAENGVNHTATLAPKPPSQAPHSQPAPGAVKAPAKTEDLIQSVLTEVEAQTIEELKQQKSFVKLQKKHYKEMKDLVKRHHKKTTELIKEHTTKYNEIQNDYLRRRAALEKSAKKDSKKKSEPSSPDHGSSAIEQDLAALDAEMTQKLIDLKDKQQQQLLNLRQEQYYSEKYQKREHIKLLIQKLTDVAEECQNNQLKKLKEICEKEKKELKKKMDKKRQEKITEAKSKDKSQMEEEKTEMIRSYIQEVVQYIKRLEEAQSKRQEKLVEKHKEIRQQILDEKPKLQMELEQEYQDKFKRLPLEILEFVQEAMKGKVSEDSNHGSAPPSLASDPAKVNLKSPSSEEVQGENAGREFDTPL


Key:
[1] = molecular target: Gαq; assay: eCFP/eYFP FRET in living cells, basal; settings: sites S887
[2] = molecular target: T1, eYFP-PLCβ1 S887D; assay: FRET or BRET
[3] = molecular target: T2, eYFP-PLCβ1 (wild type phospholipase Cβ1); assay: FRET or BRET
[4] = molecular target: T3, eYFP-PLCβ1 S887A; assay: FRET or BRET

Molecule | other: FRET efficiency ([1]; reference: wild type) | other: FRET efficiency ([1]; reference: S887A) | FRET efficiency [2] | FRET efficiency [3] | FRET efficiency [4]
PLCβ1 S887A | same; reference 38±4 |  |  |  | 
PLCβ1 S887D | same; reference 38±4 | same; reference 30±6 |  |  | 
eCFP-Gαq (natural protein, UniProt P21279 1-359, looked up) MTLESIMACCLSEEAKEARRINDEIERQLRRDKRDARRELKLLLLGTGESGKSTFIKQMRIIHGSGYSDEDKRGFTKLVYQNIFTAMQAMIRAMDTLKIPYKYEHNKAHAQLVREVDVEKVSAFENPYVDAIKSLWNDPGIQECYDRRREYQLSDSTKYYLNDLDRVADPSYLPTQQDVLRVRVPTTGIIEYPFDLQSVIFRMVDVGGQRSERRKWIHCFENVTSIMFLVALSEYDQVLVESDNENRMEESKALFRTIITYPWFQNSSVILFLNKKDLLEEKIMYSHLVDYFPEYDGPQRDAQAAREFILKMFVDLNPDSDKIIYSHFTCATDTENIRFVFAAVKDTILQLNLKEYNLV |  |  | 39 ± 3% | 38 ± 4% | 30 ± 6%
